Test system: MS2 coat protein
Test: apparent KD of MS2 coat protein; designed switch direction (-1 OFF switch, 1 ON switch): -1; higher = weaker reporter binding
Outline: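 The reported apparent KD is a per-design median over clusters, from curve fits of normalised cluster fluorescence. Protein titrations used SNAP-549-labelled MS2 coat protein, doubled from 0.7 or 1.5 nM to 3 µM, in Tris-HCl pH 7.5 buffer with KCl, MgCl2, BSA, DTT, tRNA and Tween-20, with no input, 200 uM small-molecule ligand, or an oligonucleotide input. The RNA switches were transcribed on Illumina chips by stalled E. coli RNA polymerase.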

[1] = input ligand: microRNA oligo, concentration not stated
[2] = Eterna round: R95, input ligand: FMN 200 uM
[3] = Eterna round: R95, input ligand: microRNA oligo, concentration not stated
[4] = Eterna round: R95, input ligand: none

Row | Sequence | apparent KD of MS2 coat protein (input ligand: FMN 200 uM) [nM] | apparent KD of MS2 coat protein [1] [nM] | apparent KD of MS2 coat protein (input ligand: none) [nM] | apparent KD of MS2 coat protein [2] [nM] | apparent KD of MS2 coat protein [3] [nM] | apparent KD of MS2 coat protein [4] [nM]
1 | CUUUUGUGAGGAUAUUAGUAGUAAAUAAAUAAAAUUACUACUGAGAAGGCACAUGAGGAUCACCCAUGUUCCUC [salish99_ex4_r3_041] (Eterna round: R96, puzzle: Exclusion 4) | 424 | 32.8 | 35.4 |  |  | 
2 | AUUAUAUAGAUAGGAUAUAGAAUAUUAUUUUAACAUGAGGAUCACCCAUGUAACCUUAUGUGUAGCUAGAAGGAUCAUUUAUUA [Title] (Eterna round: R96, puzzle: Exclusion NG 2) |  | 69.5 |  |  |  | 
3 | UAGAUUCAUUCCUCUAUAAACAUGAGGAUCACCCAUGUAAGUGAGGAUAUAGUAGGAGUUGUAUACUAGAAGGCACUUAGUUUU [JR_ExcNG3_Sub049] (Eterna round: R96, puzzle: Exclusion NG 3) | 49.4 | 10.7 | 13.3 |  |  | 
4 | ACGACGUAAGGAUAUACAUGAGGAUCACCCAUGUGGAGAUCCAGAGGAGAGACCUGACGUAGAAGGUGCGUCGA [Eternabot (L2) Solution 87] (Eterna round: R97, puzzle: Exclusion 3) | 286 |  | 1400 |  |  | 
5 | CUGUUUUCCGCAGGAUAUGCUCCUCCAUUAUUUGCAGAAGGGCGUUGAACAUGAGGAUCACCCAUGUAUGGAAAUGACUAUUGC [JR_ExcNG1_Sub069] (Eterna round: R96, puzzle: Exclusion NG 1) | 19.5 | 11.2 | 16.5 |  |  | 
6 | AUUUAGAGAGGAUAUAUAUUUUAAAACAUGAGGAUCACCCAUGUAAUUUUAUGGGAGAAAAUAGAAGGCUCAUUUA [JMFs Solution 1] (puzzle: Exclusion 5) |  |  |  | 114 | 205 | 197
7 | UCUCGUAGGCAAGGAUAUCCUACAUUGUUCUGGCCCGGGCAUGCUACAUGAGGAUCACCCAUGUGGGAGAAGGUGCGCCACUGC [Design 27] (Eterna round: R96, puzzle: Exclusion NG 2) | 52.4 | 39.7 | 36.2 |  |  | 
8 | GCAGCGUAUGUAGGAUAUCGGUCAGUUUCUGAUCGAGAAGGACAUGAGGAUCACCCAUGUAUUAUCAUGCGUGAGCAUGGCUGC [JL ENG1 3.71] (Eterna round: R96, puzzle: Exclusion NG 1) | 499 | 115 | 152 |  |  | 
9 | AACUUCUGAGGAUAUACUUAGAUUUACAUGAGGAUCACCCAUGUUCCUCUUUGUAUAAAUGUAGAAGGCAGAAGAA [JL-ex5-4.38 Malcolm mod] (Eterna round: R97, puzzle: Exclusion 5) | 381 |  | 45.3 |  |  | 
10 | GGCCGUUUUCGGCCCGGGCGGGCCACAUGAGGAUCACCCAUGUAGGAUAUCGCCGGGUUUCCCGGCGAGAAGGGCAGGGCCCGC [first try] (Eterna round: R96, puzzle: Exclusion NG 3) | 13.4 | 13.7 | 17.5 |  |  | 
11 | CUGCUGGAGCUUUGCUUUAGUCGUACAUGAGGAUCACCCAUGUAGGAUAUGGUAGGCUUUGCUUACUAGAAGGAUAGAGUGAUC [salish99_ExNG3_r04_605] (Eterna round: R96, puzzle: Exclusion NG 3) | 289 | 62.8 | 94.2 |  |  | 
12 | CUUUUGUGAGGAUAUUAGUAGUAAAUAAAUAAAAUUACUACUGAGAAGGCACAUGAGGAUCACCCAUGUUCCUC [salish99_ex4_r3_041] (puzzle: Exclusion 4) |  |  |  |  | 34.6 | 
13 | UGAUCUAGCGGAGGAUAUACAUGAGGAUCACCCAUGUAGAAUCCAUGACCGUAGUCGUGGAUCGUGUAGAAGGCCGCUAGAUCU [JL ENG2 3.71] (Eterna round: R96, puzzle: Exclusion NG 2) | 21.8 | 9 | 12.5 |  |  | 
14 | GGGUGUGAAGGAUAUACAUGAGGAUCACCCAUGUGAGAGGAGAAUGUUGAGGAGGUUGGUAGAAGGUCAGGAGG [JR_Exclusion3_Sub010] (puzzle: Exclusion 3) |  |  |  |  | 79.1 | 
15 | CCGCCAUGAGGAUAUCCAUCUGGAUCAGACAAGAUCCUGAUGGAGAAGGGACAUGAGGAUCACCCAUGUUGCGG [Mat - Exclusion 4 - Eli Mod - D55] (Eterna round: R97, puzzle: Exclusion 4) | 60.4 |  | 60 |  |  | 
16 | CGAGCUGCUGUGAGGAUAUACCUAUGGAUACGUGGGUAGAAGGCACAUGAGGAUCACCCAUGUCCUGCAGCUCG [salish99_bmx4_r4_102] (Eterna round: R97, puzzle: Brourd's mod of Exclusion 4) | 313 |  | 51.7 |  |  | 
17 | GGAUCACAUGUUAGGAUAUGCUGGUCCUUGGAUCAGCAGAAGGGACAUGAGGAUCACCCAUGUCAUGAAGAUCC [Eli bmx4 4.81] (Eterna round: R97, puzzle: Brourd's mod of Exclusion 4) | 52.8 |  | 24.1 |  |  | 
18 | UUUAGUUCAGGAUAUGUAGAUAUUAACAUGAGGAUCACCCAUGUCGAUCCUGAAUUAACUACAGAAGGGAACAUUU [Mod of Brourd 5 - Jieux - Exclusion 5] (Eterna round: R97, puzzle: Exclusion 5) | 69.6 |  | 17.8 |  |  | 
19 | AAGUAUAGAGGAUAUAGUGAGUACUACAUGAGGAUCACCCAUGUUCUUCGUUACGUAUUUCUAGAAGGCUGAUAAA [EX-5 Malc#23] (puzzle: Exclusion 5) |  |  |  |  | 106 | 
20 | UCAUGGUAGCAGGAUAUGCUUGUUUAAUUUUUUGCAGAAGGGCUAACAUGAGGAUCACCCAUGUGAGAGGUCUA [JR_E6_Sub065] (puzzle: Exclusion 6) |  |  |  | 31 | 64.3 | 144
21 | AAAAGAAUAAAAGGAUAUAGGAAAGGAAGUGUACUAGAAGGUUUGUUAACAUGAGGAUCACCCAUGUGCUCAGACACAGGGUGC [PowerStrip EXNG 1.3] (Eterna round: R96, puzzle: Exclusion NG 1) |  | 91.5 |  |  |  | 
22 | AGUACUAACACGAAAGUGUUAGUACAAUAAGCUUGUGGUACAUGAGGAUCACCCAUGUCCUCAUAAGCUCGUCUUAU [JL-sv3-2.13 mat747 mod] (puzzle: Sensor v3, turn-off variant 2) |  |  |  | 22.5 | 62.2 | 20.7
23 | CUUUAGUGAGGAUAUCAGUAGUAAUACAAUAGUAUUACUACUGAGAAGGCACAUGAGGAUCACCCAUGUUCUUC [Mat - Exclusion 4 - Mod of Omei - D77] (puzzle: Exclusion 4) |  |  |  |  | 18.8 | 
24 | GAAAAUGUGGAGGAUAUCGACUUCGAAAGAAGUCGAGAAGGCCACACAUGAGGAUCACCCAUGUGAUGCCAAUA [Omei Ex6 H9] (Eterna round: R97, puzzle: Exclusion 6) | 443 |  | 284 |  |  | 
25 | ACAAGCUUUUAGAUUUUCAACAUGAGGAUCACCCAUGUUCGUCUUAUGCUAGUGCGAGUGCGGUGUACUCGUAUUAG [JL TOV1 3.81 sellena mod] (Eterna round: R97, puzzle: Sensor, turn-off variant 1) | 18.2 |  | 16.8 |  |  | 
